± gives the uncertainty stated by the source.
Assay: self-splicing fitness, log relative to wild type (ln ratio); higher = more splicing; Tetrahymena group I intron in knt gene, E. coli kanamycin selection, DiMSum; sequences stand for … in CUCUCU…GGAGGGAAAAGUUAUCAGGCAUGCACCUGGUAGCUAGUCUUUAAACCAAUAGAUUGCAUCGGUUUAAAAGGCAAGACCGUCAAAUUGCGGGAAAGGGGUCAACAGCCGUUCAGUACCAAGUCUCAGGGGAAACUUUGAGAUGGCCUUGCAAAGGGUAUGGUAAUAAGCUGACGGACAUGGUCCUAACCACGCAGCCAAGUCCUAAGUCAACAGAUCUUCUGUUGAUAUGGAUGCAGUUCACAGACUAAAUGUCGGUCGGGGAAGAUGUAUUCUUCUCAUAAGAUAUAGUCGGACCUCUCCUUAAUGGGAGCUAGCGGAUGAAGUGAUGCAACACUGGAGCCGCUGGGAACUAAUUUGUAUGCGAAAGUAUAUUGAUUAGUUUUGGAGUACUCGUGGUCG
Procedure, shortened: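 Fitness was computed with DiMSum as the error-weighted combination of replicate fold changes, kanamycin versus none, each normalised to wild type. The library randomised all eight intron nucleotides of the P1ex region, with the intron placed in the knt kanamycin-resistance gene on pET-22b(+) in E. coli BL21(DE3). Six replicate transformations were grown overnight at 37°C or 30°C on LB agar with or without 25 μg/mL kanamycin, plus 100 μg/mL carbenicillin, 50 μM IPTG and 0.2% rhamnose. Pooled colonies were amplicon-sequenced on an Illumina HiSeq 2500.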

Sequence | self-splicing fitness (ln) (30 °C) | self-splicing fitness (ln) (37 °C)
CUGCAGCAAUAUUACGAUUA | -3.35 ± 0.28 | -2.32 ± 0.16
CUGCAGCAAUAUUACGCACU | -3.45 ± 0.2 | -0.783 ± 0.17
CUGCAGCAAUAUUACGCAGG | -2.91 ± 0.17 | -2.15 ± 0.16
CUGCAGCAAUAUUACGCUGU | -1.87 ± 0.12 | -2.8 ± 0.3
CUGCAGCAAUAUUACGGCUG | -3.32 ± 0.3 | -1.52 ± 0.26
CUGCAGCAAUAUUACGGGAA | -4.02 ± 0.29 | -2.53 ± 0.17
CUGCAGCAAUAUUACGUACG | -0.548 ± 0.082 | 0.0422 ± 0.11
CUGCAGCAAUAUUACGUAGA | -3.08 ± 0.15 | -3.35 ± 0.3
CUGCAGCAAUAUUACGUAUA | -2.64 ± 0.17 | -2.16 ± 0.18
CUGCAGCAAUAUUACGUUCA | -3.81 ± 0.2 | -1.97 ± 0.15
CUGCAGCAAUAUUACGUUCC | – | -1.74 ± 0.35
CUGGAGCAAUAUUACGAAGG | -3.43 ± 0.28 | -1.97 ± 0.27
CUGGAGCAAUAUUACGAUUC | -2.02 ± 0.29 | –
CUGGAGCAAUAUUACGAUUG | -1.87 ± 0.12 | 0.00165 ± 0.13
CUGGAGCAAUAUUACGCGUU | -3.89 ± 0.33 | -1.86 ± 0.27
CUGGAGCAAUAUUACGGAGU | -2.37 ± 0.22 | –
CUGGAGCAAUAUUACGGAUA | -3.57 ± 0.48 | -1.35 ± 0.25
CUGGAGCAAUAUUACGGCAC | -3.28 ± 0.32 | -2.35 ± 0.39
CUGGAGCAAUAUUACGGGGG | -2.27 ± 0.26 | -1.89 ± 0.4
CUGGAGCAAUAUUACGGGUG | -1.61 ± 0.079 | -0.251 ± 0.078

Sequence | self-splicing fitness (ln) (30 °C) | self-splicing fitness (ln) (37 °C)
CUGGAGCAAUAUUACGGUAA | -2.61 ± 0.28 | -2.89 ± 0.25
CUGGAGCAAUAUUACGGUAU | -4.78 ± 0.41 | -2.49 ± 0.31
CUGGAGCAAUAUUACGGUCA | -2.54 ± 0.47 | –
CUGGAGCAAUAUUACGGUUC | -2.68 ± 0.49 | –
CUGGAGCAAUAUUACGUCUC | -2.68 ± 0.33 | -1.16 ± 0.36
CUGGAGCAAUAUUACGUGGU | -3.53 ± 0.22 | -2.4 ± 0.35
CUGGAGCAAUAUUACGUUAG | -1.65 ± 0.068 | -1.51 ± 0.098
CUGGAGCAAUAUUACGUUCU | -2.43 ± 0.26 | -1.68 ± 0.49
CUGUAGCAAUAUUACGAAGU | -2.13 ± 0.23 | -1.82 ± 0.27
CUGUAGCAAUAUUACGAAUG | -1.12 ± 0.081 | 0.429 ± 0.11
CUGUAGCAAUAUUACGAGCA | – | -2.01 ± 0.31
CUGUAGCAAUAUUACGAGGG | -3.5 ± 0.49 | -1.14 ± 0.34
CUGUAGCAAUAUUACGAUGG | -2.74 ± 0.18 | -1.81 ± 0.19
CUGUAGCAAUAUUACGAUGU | -5.35 ± 0.11 | -5.09 ± 0.16
CUGUAGCAAUAUUACGCAGU | -2.29 ± 0.15 | -3.65 ± 0.33
CUGUAGCAAUAUUACGCAUA | -2.83 ± 0.47 | -2.43 ± 0.41
CUGUAGCAAUAUUACGCCGC | -2.54 ± 0.41 | -1.08 ± 0.47
CUGUAGCAAUAUUACGGGGA | -2.67 ± 0.17 | -2.9 ± 0.24
CUGUAGCAAUAUUACGGUAG | -2.9 ± 0.21 | -1.98 ± 0.25
CUGUAGCAAUAUUACGUAAU | -3.88 ± 0.3 | -3.29 ± 0.37

— the supplement of paper PMC7877785
